Test: soluble on expression in E. coli; label from the status in PepcDB or PDB records

Sequence	soluble on expression in E. coli
MTIHLSSLGQVYLVCGKTDMRQGIDSLAYLVKTHFELDPFSGQVFLFCGGRKDRFKALYWDGQGFWLLYKRFENGKLTWPSTEKDVKALTPEQVDWLMKGFSITPKINLSESRDFY	not soluble
MGSDKIHHHHHHMLAGKTASEIFDNIRHLVQSGGLQPGEVLPPVRELASQLAVNRNTVAAAYKRLVTSGLAVSQGRNGTAIKARDTLPALEGGDPTTPLNDISSGNPDPARLPDLPRYLGQIARTPRLYGDAPIEPRLGQWAEAWFAREIAVPFAVNLASGAIDALERLLCALLLPGDGVVVEDPCFLSSINMVRYAGFTPCPVAVDAEGMDPDGLEEALRNGARAVILTPRAHNPTGCSLTETRAHALREVLARYPQVLAIVDDHFALLSATPWHSPLPASTQRWALVRSMSKTLGPDLRLAFIASDAATSAALRLRLNAGSQWVSHLLQDLTLACLTDEAFIASMTETRRHYRQQNEKLAAALARHGFSHATPGDGLNFWLPLPAASQPYALRLARAGWLVREGEVFGIRTPSHGLRLSLGRLSDAEISRLAADIAQALDAP	not soluble
MNNSNRIIPFAFKSSEHGSYEDEMMEMEDVVDVEDYMGGEKYDSYNDAKEDIKDFKTTQRMKKIHRMEKIEQNIASEKIDIIELGTRVMVSTSDKTLNEASLERTIRCGISEATFLGDISMESLVEGMVNPSAADGRFAMLGTSIMLNALKSNIKDLRGTIVGQTTNTNSESKFDKIDLSLMNLSHCQQTSYNIRATGVFSNADLQYVFSLLTFRRNAKLLNKTKQFIKAYFCVACRPRCMIWRYTLRRAGNSQRRAILNLPSAIVSTITQFLLDLTGISDANIPYDQLDPMTPLSISLGEDESMRVQRYEEACRLKDPLTRFFRDAITDCLNELREMPFCLNTGILLSPLRGREQGTSCVTWKDYEGFLKREHDLPSEANMKKRTQFEQRLCDIIPRVRRPVPN	not soluble
MQKEPRKVREFRRREQEILDTALKLFLEQGEDSVTVEMIADAVGIGKGTIYKHFKSKAEIYLRLMLDYERDLNELLHSADVDKDKEALSRAYFEFRMRDPQRYRLFDRLEEKVVKGNQVPELVEELHKIRASNFEHLTLLIKGRITEGKLEDVPPYYHYCAAWALVHGAVALYHSPFWSNVLEDQEGFFNFLMDIGVRMGNKRKRDTDVPAEPKPDPDV	not soluble
MKPDIYALLERALLSGDPDEKGRLTDEAFAAVQNMDGAETNTPPLDFPRAGRPDKPVLVAPSQLTPRKMNTTEGYAAMLHAIAHIEFNAVNLALDAAYRFRTLPFQFVRDWVKVAKEEVYHFRLMRERLRAFGFDYGDFEAHNHLWDMAYKTAYDPLLRMALVPRVLEARGLDVTPGIRAKVAQRGDSETCGVLDIIYRDEVGHVAIGNRWYQHLCRERGLEPIALFRSLIARYDMFIFRGYVNIEAREKAGFSRFELDMLEDFEQSLKQNKNTVMGHHHHHHSH	soluble
MFYDLAIGIYDLLVHLAAPFSRKPRKMMKGHWVVYDLLRQQVEKDERYIWFHAASLGEFEQGRPLIESIRERYPDYKILQTFFSPSGYEVRKNYRGADIVCYLPFDKPRNVKKFLDIVNPCMAFFIKYEFWKNYLDELHKRRIPVYSVSSIFRKDQIFFKWYGGTYRNVLKDFDHLFVQNEASKRFLAKIGITRVTVVGDTRFDRVLQIREQAKELPLVEQFKNGAFTFVAGSSWGPDEDLFIEYFNSHPEMKLIIAPHVIDENHLVEIIGKLKRPSVRYTRADEKNVRKADCLIIDCFGLLSSIYRYGEIAYIGGGFGVGIHNTLEAAVYGIPVIFGPKYQKFMEAMQLIEAGGAYSIKDYNELKTLLDRLLTDEAFLRKTGTNAGNYVIGNSGATEKVLHMINFLEHHHHHH	not soluble
MINKLDNLNEEVANQIFTVFQNSYKIEAQLIGTLNFPPLLRSAKDIENSKTLFYGFSENECLAAVIEIVLENKQLDINSLTVDPNYFRKGIANKLITYILDKFYFSEAIVETAVVNTPAINLYKKHGFVEFKRWIPSHGIEKLAMSVKATL	not soluble
MSRTWIRNPLAIFTANGLDAAGGLVVEDGRIVELLGAGQQPAQPCASQFDASRHVVLPGLVNTHHHFYQTLTRAWAPVVNQPLFPWLKTLYPVWARLTPEKLELATKVALAELLLSGCTTAADHHYLFPGGLEQAIDVQAGVVEELGMRAMLTRGSMSLGEKDGGLPPQQTVQEAETILADSERLIARYHQRGDGARVQIALAPCSPFSVTPEIMRASAEVAARHDVRLHTHLAETLDEEDFCLQRFGLRTVDYLDSVGWLGPRTWLAHGIHFNAEEIRRLGEAGTGICHCPSSNMRLASGICPTVELEAAGAPIGLGVDGSASNDASNMILEARQALYLQRLRYGAERITPELALGWATRGSARLLGRSDIGELAPGKQADLALFKLDELRFSGSHDPLSALLLCAADRADRVMVGGAWRVVDGAVEGLDLAALIARHRAAASALIAG	not soluble
MSLSEDENALSIFETNCHSGSPKKQSSSAAIHKPYLHFTMSPYHQPTSYRPRLLLSGERGSGQTSHLAPALLHTLERFSVHRLDLPALYSVSAKTPEESCAQIFREARRTVPSIVYMPHIGDWWEAVSETVRATFLTLLQDIPSFSPIFLLSTSETMYSELPEEVKCIFRIQYEEVLYIQRPIEEDRRKFFQELILNQASMAPPRRKHAALCAMEVLPLALPSPPRQLSESEKSRMEDQEENTLRELRLFLRDVTKRLATDKRFNIFSKPVDIEEVSDYLEVIKEPMDLSTVITKIDKHNYLTAKDFLKDIDLICSNALEYNPDKDPGDKIIRHRACTLKDTAHAIIAAELDPEFNKLCEEIKEARIEGHHHHHH	not soluble
GSAMRSAQVYRWQIPMDAGVVLRDRRLKTRDGLYVCLREGEREGWGEISPLPGFSQETWEEAQSVLLAWVNNWLAGDCELPQMPSVAFGVSCALAELTDTLPQAANYRAAPLCNGDPDDLILKLADMPGEKVAKVKVGLYEAVRDGMVVNLLLEAIPDLHLRLDANRAWTPLKGQQFAKYVNPDYRDRIAFLEEPCKTRDDSRAFARETGIAIAWDESLREPDFAFVAEEGVRAVVIKPTLTGSLEKVREQVQAAHALGLTAVISSSIESSLGLTQLARIAAWLTPDTIPGLDTLDLMQAQQVRRWPGSTLPVVEVDALERLL	soluble
MSKNVGKLVKIWNESEVLVDRKSKFQARCCPLQNQKDIPSILQELTQNNKSVSKASHMHMYAWRTAEVSNNLHLQQEQKKKGNKANKSNNSHVNKSRNITVQPKNIEQGCADCGEAGAGQRLLTLLERANIFNVLVIVTRWYGGTPLGSSRFRHISTCAVETLKKGGFLP	soluble
MISVMQQMINNDSPEDSKESITSVQQTPFFWPSAAAAIPSIQGESRSERESETGSSPQLAPSSTGMVMPGTAGMYGFGPSRMPTANEFGMMMNPVYTDFYQNPLASTDITIPTTAGSSAATTPNAAMHLPWAISHDGKKKRQPYKKDQISRLEYEYSVNQYLTNKRRSELSAQLMLDEKQVKVWFQNRRMKDKKLRQRHSGPFPHGAPVTPCIERLIN	not soluble
MGSDKIHHHHHHMTLLNMSNVQIMDVVQALSLSIERGERVGLIGESGSGKTITAMSILRLIPSSGSIVFDGADIQGLSEKQMCALRGKRISMVFQEPMTALDPLMKVGTQISHAIRIHSSVSRAQARKKADALLHSVELDPELRSRYPHELSGGQRQRILIAMALAHDPDLLICDEPTTALDVTSQKAIVDLILRLVAERGTGLLFITHDLGLVARTCERVLVMREGRIIESGTVEDVLKNPREDYTAMLVQASTLAPAPQVALSDDEVLHIDNVTKKYRGTTAVEDVTLTVHRGERLGIVGGSGSGKTTLLKMISGLSSPTSGHINTEGSMRIVFQDPMQSLDPHMSIADIVSEPLGHRDLKAVERALEEVGLDAGMMNRLPHEFSGGQRQRISIARALVSSPDILLADEPVSALDVSVRAKVLALLDRLVSERHLTMLFVSHDLHVVRSLCTTVAVMREGKIVEYGPTEDVFNNPQHEYTKALIEAIPSL	not soluble
MGSDKIHHHHHHMNTPREVTLHFLRTAGHPLTRWALQRQPPSPKQLEEEFLKIPSNFVSPEDLDIPGHASKDRYKTILPNPQSRVCLGRAQSQEDGDYINANYIRGYDGKEKVYIATQGPMPNTVSDFWEMVWQEEVSLIVMLTQLREGKEKCVHYWPTEEETYGPFQIRIQDMKECPEYTVRQLTIQYQEERRSVKHILFSAWPDHQTPESAGPLLRLVAEVEESPETAAHPGPIVVHCSAGIGRTGCFIATRIGCQQLKARGEVDILGIVCQLRLDRGGMIQTAEQYQFLHHTLALYAGQLPEEPSP	soluble
MTKTEGKTASAAVKDILLSNPDGLREVIRTVMQEVLEAEMDEALGAAKGERTPERLGYRSGHYGRTLITRVGKLELRVPQDRSGHFSTELFERYQRSERALVATLAEMYVQGVSTRKVKAITEELCGHAFSASSISAINKRLDESLKAFAERSLEEPFAYLILDARYEKVREAGVVMSQAVLIAVGIDWDGRRQILSVEMAGRESRSAWKDFLVRLKGRGLKGVELVVSDDHAGLVAAIGEVIPEAAWQRCYVHFLRNALDHLPRKHGDDCLQELRWLYDRRDLDEAKADLAAWLGKWSVRYPRLTSWVEETIEQTLTFFRLPRQHHKHLKSTNMLERLNEEIRRRTYVVRIFPNTESCLRLVRALAVETHENWMEANRYINMDDLREHKKLALRQAA	not soluble
MRQNDKIMCILENRKKRDRKNLCRAINDFQQSFQKPETRREFDLSDPLALKKDLPARQSDNDVRNTISGMQKFMGEDLNFHERKKFQEEQNREWSLQQQREWKNARAEQKCAEALYTETRLQFDETAKHLQKLESTTRKAVCASVKDFNKSQAIESVERKKQEKKQEQEDNLAEITNLLRGDLLSENPQQAASSFGPHRVVPDRWKGMTQEQLEQIRLVQKQQIQEKLRLQEEKRQRDLDWDRRRIQGARATLLFERQQWRRQRDLRRALDSSNLSLAKEQHLQKKYMNEVYTNQPTGDYFTQFNTGSR	not soluble
MAHHHHHHMISRINIDGSVNGRFCKKINNNIDCKLNFNTYAKNDTRNMYEMSLEVNKPLYTYNFKSIWQGAWIFNTSYTQLLTKKLQAGVDLTYIASNCASIGSFGLRYNHKNNVLTMQIVRQPNFKSPEFMLNQTHLYKIQYAKKISDRLSLGTELEITPQTKESAMRLGWDYSFRHAKVQGSIDTSGKISVFTQDYSGFGVSGYIDYLNNDYKFGFMMHISPSQEQPQTAA	not soluble
MKIAIVGAGIGGLTAAALLCEQGHEVKVFEKNSTITEVGAGIGIGGNVIDKLGKHDLAKGIKNIGQVINVMEILDDKDNVLSKAKLKKNTVNLTMTRQSLIDVIKSYVSESAIYTNHHVTHVDNNALKVVMHFEAQEAEAFDLCIGADGLHSNIRHTVAPNSKTQYQGYTVFRGLVEDIDIKSDNVAKEYWSAKGRVGVVPLLNNQAYWFISINAKENDATMQSYGKPHLQARFNHFPNEVRKVLDKQSETDILLHDIYDLQPLKTFVYQRVILLGDAAHATTPNMGQGAGQAMEDAIVLANCLQAYPFEAALQRYDKIRVDHTKKVIKRSRKIGKLAQRSNKIVISLRNSIAKIMPNRLVAAQTKFIYKSKNKLEHHHHHH	soluble
MSTNPFAILRLPESALRKSINQMGLMEQFSLSVLSNKTKHAVTMLPEVKNDVSITMTSSLELLLSNHSQDVDFIFEMDSHYPNVEIRQRFDNARCRFTQLSIPGFTVKHWIEHIVDVFCKNQGVALIFESIMRERFYELYEIIKNIKIVHLEPFSSQIQDYQRLTLFPSLEWLTVIGVDEAPIGTPILIQNFEGFIIFPNIQWKIDDVLISNFSNLRMWHRTFSVQDLNLFMRQWIKGSMPRLEEFDVILSHSNQHKLVETDLFKSIKYTVKENENCKINVIKRRDGAKASVCFGGKSSYEFHFTVESEPD	not soluble
MSLRILGRASSINVRKVLWACAEFEIAFEREDWGSGFKATDSTEFLALNPNAMIPVIQDGDFTLWESNSIIRYLASRYGATAFYPGEAQARARIDQWIDWQASDLNRSWSYAFMSLVRHSPAHQDPQALAAGCAEWSRYMRILDRQLASTGAYVAGSQFTLADIPIGLSVNRWFETPFEHPHLPAVRDYYERLSERPAYHLHGRNGTEGHHHHHH	soluble

Reference: the DeepSol protein solubility set
